T1: TAF7 (WT) (UniProt Q15545 1-349)
T1 sequence: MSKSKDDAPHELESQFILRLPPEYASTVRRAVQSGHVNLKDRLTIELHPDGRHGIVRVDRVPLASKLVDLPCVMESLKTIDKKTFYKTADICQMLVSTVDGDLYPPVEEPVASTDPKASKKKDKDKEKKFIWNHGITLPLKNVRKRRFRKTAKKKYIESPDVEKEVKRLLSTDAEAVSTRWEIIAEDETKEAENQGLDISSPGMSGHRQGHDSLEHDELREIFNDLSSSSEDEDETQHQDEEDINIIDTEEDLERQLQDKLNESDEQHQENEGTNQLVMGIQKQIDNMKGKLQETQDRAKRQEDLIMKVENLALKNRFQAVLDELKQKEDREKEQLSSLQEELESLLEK


Biological target: T1, TAF7 (WT)
Assay: EMSA

| Binder | binding result |
| --- | --- |
| GGCAGAUCUGAGCCUGGGAGCUCUCUGCC (structured_RNA) [HIV-1 TAR RNA] | binds |
| GGCAGAAAGGAGCAUUGGAGCUCUCUGCC (structured_RNA) [TARmut RNA] | no binding |

Reference: publication PMC8664259
